# Results from patent publication US20240336672A1 (INSTITUT PASTEUR, published 2024).
# Changes are numbered by the printed parent chain.
# B1: Cv2.1353 (recombinant human IgG1) (antibody, V domains shown)
# VH: EVQLVESGGGLVQPGGSLRLSCAASGVTVSSNYMNWVRQAPGKGLEWVSVIYSGGSTFYADSVKGRFIISRDNSKNTLYLQMNSLKTEDTAVYYCARDLGPMGFDIWGQGTMVTVSS
# VL: DIQMTQSPSFLSASVGDRVTITCRASQGISSYLAWYQQKPGKAPKLLIYAASTLQSGVPSRFSGSGSGTEFTLTISSLQPEDFATYYCQQLNSDPPVTFGPGTKVDIKR
# B2: Cv2.3194 (recombinant human IgG1) (antibody, V domains shown)
# VH: EVQLVESGGGLIQPGGSLRLSCAASGITVTSNYMSWVRQAPGKGLEWVSVIYPGGSTFYADSVKGRFTISRDNSKNTLYLQMNSLRAEDTAVYYCARDLVVYGMDVWGQGTTVTVSS
# VL: EIVLTQSPGTLSLSPGERATLSCRASQSVSSSYLAWYQQKPGQAPRLLIYGASSRATGIPGRFSGSGSGTDFTLTISRLEPEDFAIYYCQQGVTFGGGTKVEIKR
# B3: Cv2.5213 (recombinant human IgG1) (antibody, V domains shown)
# VH: B2 VH with I27F, T30S, V50L, P53S, F58Y, V100N, V101Y, T111A
# VL: B1 VL with F10S, E70D, N92D, D94Y, P95S, V97F
# B4: Cv2.3235 (recombinant human IgG1) (antibody, V domains shown)
# VH: B2 VH with I27F, T30S, S31R, P53S, L99G, V100D, V101Y
# VL: DIQMTQSPSFLSASVGDRVTITCRASQGISSFLAWYQQKPGKAPKLLIYGASTLQSGVTSRFSGSGSGTEFTLTISSLQPEDFATYYCQRLDSYPPITFGQGTRLEIKR
# B5: Cv2.1169 (recombinant human IgG1) (antibody)
# heavy: QVQLVQSGPEVKKPGTSVKVSCKASGFTFTTSAVQWVRQARGQRLEWIGWIVVGSGNTNYAQKFQERVTITRDMSTTTAYMELSSLRSEDTAVYYCAAPYCSGGTCLDGFDIWGQGTMVTVSSASTKGPSVFPLAPSSKSTSGGTAALGCLVKDYFPEPVTVSWNSGALTSGVHTFPAVLQSSGLYSLSSVVTVPSSSLGTQTYICNVNHKPSNTKVDKKVEPKSCDKTHTCPPCPAPELLGGPSVFLFPPKPKDTLMISRTPEVTCVVVDVSHEDPEVKFNWYVDGVEVHNAKTKPREEQYNSTYRVVSVLTVLHQDWLNGKEYKCKVSNKALPAPIEKTISKAKQPREPQVYTLPPSRDELTKNQVSLTCLVKGFYPSDIAVEWESNGQPENNYKTTPPVLDSDGSFFLYSKLTVDKSRWQQGNVFSCSVMHEALHNHYTQKSLSLSPGK
# light: not shown
# notes: also called Cv2.1169 IgG
# Columns and labels:
# [1] = target: T1, CoV-NL63 Spike ectodomain (NL63-CoV, UniProt Q6Q1S2 19-1291); assay: ELISA, coated spike ectodomain
# T1 sequence: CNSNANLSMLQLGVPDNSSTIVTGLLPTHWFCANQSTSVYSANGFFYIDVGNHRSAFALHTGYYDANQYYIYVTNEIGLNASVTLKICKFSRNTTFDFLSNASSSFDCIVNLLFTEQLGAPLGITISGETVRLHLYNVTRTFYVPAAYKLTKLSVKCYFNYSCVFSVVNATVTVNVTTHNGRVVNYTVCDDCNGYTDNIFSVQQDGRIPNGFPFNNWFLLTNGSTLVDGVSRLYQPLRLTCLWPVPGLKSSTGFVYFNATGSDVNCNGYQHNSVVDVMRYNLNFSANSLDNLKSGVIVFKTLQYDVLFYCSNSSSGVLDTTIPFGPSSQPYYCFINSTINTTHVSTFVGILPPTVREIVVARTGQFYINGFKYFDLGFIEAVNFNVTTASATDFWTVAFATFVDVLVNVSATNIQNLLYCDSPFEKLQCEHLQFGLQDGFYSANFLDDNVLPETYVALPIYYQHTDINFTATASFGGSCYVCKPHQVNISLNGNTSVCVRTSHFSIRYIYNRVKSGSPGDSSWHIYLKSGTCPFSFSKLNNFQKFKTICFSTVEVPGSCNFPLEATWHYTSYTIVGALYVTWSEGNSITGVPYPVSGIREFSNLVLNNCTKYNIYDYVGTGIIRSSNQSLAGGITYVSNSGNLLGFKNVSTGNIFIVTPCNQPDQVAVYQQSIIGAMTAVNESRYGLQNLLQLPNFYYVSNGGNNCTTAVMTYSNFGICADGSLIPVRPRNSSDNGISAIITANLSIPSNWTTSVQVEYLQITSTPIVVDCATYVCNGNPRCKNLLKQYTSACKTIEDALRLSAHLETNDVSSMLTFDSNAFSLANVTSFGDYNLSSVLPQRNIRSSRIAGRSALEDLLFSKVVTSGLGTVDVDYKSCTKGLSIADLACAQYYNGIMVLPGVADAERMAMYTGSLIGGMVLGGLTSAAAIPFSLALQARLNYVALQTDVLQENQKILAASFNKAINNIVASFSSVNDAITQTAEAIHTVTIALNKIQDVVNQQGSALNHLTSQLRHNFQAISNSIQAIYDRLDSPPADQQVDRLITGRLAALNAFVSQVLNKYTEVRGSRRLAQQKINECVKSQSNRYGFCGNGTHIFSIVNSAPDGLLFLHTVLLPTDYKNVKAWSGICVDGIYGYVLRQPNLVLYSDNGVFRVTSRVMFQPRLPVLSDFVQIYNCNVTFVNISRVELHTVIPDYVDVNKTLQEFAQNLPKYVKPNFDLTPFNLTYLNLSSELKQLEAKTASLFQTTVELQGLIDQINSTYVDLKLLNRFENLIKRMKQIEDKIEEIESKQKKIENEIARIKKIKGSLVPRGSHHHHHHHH
# [2] = target: T2, CoV-OC43 Spike ectodomain (OC43-CoV, UniProt P36334 14-1263); assay: ELISA, coated antigen; also: test concentration or dose not given here
# T2 chain: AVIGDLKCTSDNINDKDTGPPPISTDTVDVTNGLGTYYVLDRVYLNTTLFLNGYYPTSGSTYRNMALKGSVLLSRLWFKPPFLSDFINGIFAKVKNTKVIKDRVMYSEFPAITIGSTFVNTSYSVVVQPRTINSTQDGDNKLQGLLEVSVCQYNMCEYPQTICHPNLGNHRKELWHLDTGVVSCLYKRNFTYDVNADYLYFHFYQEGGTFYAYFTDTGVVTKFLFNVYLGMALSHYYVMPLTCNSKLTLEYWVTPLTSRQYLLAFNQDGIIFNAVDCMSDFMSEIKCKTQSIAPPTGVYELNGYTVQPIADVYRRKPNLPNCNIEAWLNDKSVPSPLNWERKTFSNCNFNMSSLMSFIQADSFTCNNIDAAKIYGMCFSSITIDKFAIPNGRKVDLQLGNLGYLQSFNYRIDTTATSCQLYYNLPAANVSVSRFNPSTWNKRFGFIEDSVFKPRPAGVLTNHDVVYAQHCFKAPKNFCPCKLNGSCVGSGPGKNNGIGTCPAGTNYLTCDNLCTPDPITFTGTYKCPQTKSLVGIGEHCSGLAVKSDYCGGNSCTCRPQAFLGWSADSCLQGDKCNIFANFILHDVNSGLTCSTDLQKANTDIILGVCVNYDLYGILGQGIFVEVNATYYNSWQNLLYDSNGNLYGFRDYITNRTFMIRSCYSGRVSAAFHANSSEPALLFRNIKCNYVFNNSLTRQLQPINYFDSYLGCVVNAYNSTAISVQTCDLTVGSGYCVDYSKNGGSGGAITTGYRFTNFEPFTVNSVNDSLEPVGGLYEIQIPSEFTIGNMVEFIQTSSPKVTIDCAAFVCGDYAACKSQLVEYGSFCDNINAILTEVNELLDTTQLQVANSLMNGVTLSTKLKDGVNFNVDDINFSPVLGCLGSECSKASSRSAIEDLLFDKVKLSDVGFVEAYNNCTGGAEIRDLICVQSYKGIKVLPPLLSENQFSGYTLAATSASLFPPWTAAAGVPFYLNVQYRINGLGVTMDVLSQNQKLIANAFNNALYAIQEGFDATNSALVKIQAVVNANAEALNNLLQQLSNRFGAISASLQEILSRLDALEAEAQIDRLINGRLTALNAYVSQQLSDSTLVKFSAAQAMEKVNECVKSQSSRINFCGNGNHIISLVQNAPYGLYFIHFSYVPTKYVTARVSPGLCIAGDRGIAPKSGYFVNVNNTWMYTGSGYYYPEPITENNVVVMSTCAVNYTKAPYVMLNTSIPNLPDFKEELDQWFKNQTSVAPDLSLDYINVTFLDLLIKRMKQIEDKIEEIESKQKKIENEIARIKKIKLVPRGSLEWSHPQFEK
# [3] = target: T1, CoV-NL63 Spike ectodomain; assay: ELISA, coated antigen; also: test concentration or dose not given here
Binder,binding result [1],ELISA OD [2],ELISA OD [3]
B1,no binding,0.8 OD,0.1 OD
B2,no binding,0.8 OD,0.1 OD
B3,no binding,0.7 OD,0.1 OD
B4,no binding,0.3 OD,0.2 OD
B5,no binding,0.1 OD,0.1 OD
